Source: patent US20240287208A1 (CONCEPT TO MEDICINE BIOTECH, published 2024)
Residue numbers refer to the chain shown, from its start.

T1: human OX40 protein (human, UniProt P43489 29-216, limits assumed)
T1 sequence (looked up): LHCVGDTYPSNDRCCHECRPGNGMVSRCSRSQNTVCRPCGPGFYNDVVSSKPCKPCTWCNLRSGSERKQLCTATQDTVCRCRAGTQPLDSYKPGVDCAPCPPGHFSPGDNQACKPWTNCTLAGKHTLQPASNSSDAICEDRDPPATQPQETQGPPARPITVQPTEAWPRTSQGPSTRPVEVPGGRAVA

T2: human 5T4 (human, UniProt Q13641 32-355, limits assumed)
T2 construct: also called hu5T4
T2 sequence (looked up): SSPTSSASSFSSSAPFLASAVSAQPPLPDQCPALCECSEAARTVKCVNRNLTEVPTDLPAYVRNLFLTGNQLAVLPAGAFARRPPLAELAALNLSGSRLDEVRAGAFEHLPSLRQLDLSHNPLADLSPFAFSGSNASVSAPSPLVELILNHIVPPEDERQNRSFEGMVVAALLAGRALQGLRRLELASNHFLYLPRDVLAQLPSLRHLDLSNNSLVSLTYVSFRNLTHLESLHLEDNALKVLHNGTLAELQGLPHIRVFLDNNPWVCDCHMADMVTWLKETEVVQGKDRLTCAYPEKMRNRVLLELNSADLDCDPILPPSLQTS

B1: b12 (42p155z2) anti-5T4/CD40 bispecific antibody (bispecific antibody, human IgG1, kappa, N297A)
heavy 1: EVQLQQSGPELVKPGASVKISCKASGYAFSSSWMNWVKQRPGKGLEWIGRIYREDGHTNYNGKFKGKATLTADKSSTTAYMQLTSLTSEDSAVYFCANGGAMDYWGQGTSVTVSSASTKGPSVFPLAPSSKSTSGGTAALGCLVKDYFPEPVTVSWNSGALTSGVHTFPAVLQSSGLYSLSSVVTVPSSSLGTQTYICNVNHKPSNTKVDKKVEPKSCDKTHTCPPCPAPELLGGPSVFLFPPKPKDTLMISRTPEVTCVVVDVSHEDPEVKFNWYVDGVEVHNAKTKPREEQYASTYRVVSVLTVLHQDWLNGKEYKCKVSNKALPAPIEKTISKAKGQPREPQVCTLPPSREEMTKNQVSLSCAVKGFYPSDIAVEWESNGQPENNYKTTPPVLDSDGSFFLVSKLTVDKSRWQQGNVFSCSVMHEALHNHYTQKSLSLSPGK
light: DIQMTQSTSSLSASLGDRVTISCRASQDISNYLNWYQQKPDGTVKLLIYYTSRLHSGVPSRFSGSGSGTDYSLTISNLEQEDIATYFCQQDNTLPWTFGGGTKLEIKRTVAAPSVFIFPPSDEQLKSGTASVVCLLNNFYPREAKVQWKVDNALQSGNSQESVTEQDSKDSTYSLSSTLTLSKADYEKHKVYACEVTHQGLSSPVTKSFNRGEC
heavy 2: not shown
notes: also called 1+1 b12 format
B2: b17 (42p155z2) anti-5T4/CD40 bispecific antibody (bispecific antibody, human IgG1, kappa, N297A)
heavy 1: EVQLQQSGPELVKPGASVKISCKASGYAFSSSWMNWVKQRPGKGLEWIGRIYREDGHTNYNGKFKGKATLTADKSSTTAYMQLTSLTSEDSAVYFCANGGAMDYWGQGTSVTVSSASTKGPSVFPLAPSSKSTSGGTAALGCLVKDYFPEPVTVSWNSGALTSGVHTFPAVLQSSGLYSLSSVVTVPSSSLGTQTYICNVNHKPSNTKVDKKVEPKSCDKTHTCPPCPAPELLGGPSVFLFPPKPKDTLMISRTPEVTCVVVDVSHEDPEVKFNWYVDGVEVHNAKTKPREEQYASTYRVVSVLTVLHQDWLNGKEYKCKVSNKALPAPIEKTISKAKGQPREPQVCTLPPSREEMTKNQVSLSCAVKGFYPSDIAVEWESNGQPENNYKTTPPVLDSDGSFFLVSKLTVDKSRWQQGNVFSCSVMHEALHNHYTQKSLSLSPGKGGGGSGGGGSGGGGSGGGGSEVQLVESGGGLVQPGGSLRLSCAASGFAFRSYTMSWVRQAPGKGLEWVSTITHNGAITTYAESAQGRFTISRDNSKNTLYLQMNSLRAEDTAVYYCAQGGGSNYYRESWGQGTQVTVSS
light: B1 light
heavy 2: not shown
notes: also called 1+2 b17 format
B3: 42p155z2 humanized monoclonal antibody (antibody, V domains shown)
VH: EVQLVESGGGLVQPGGSLRLSCAASGFAFRSYTMSWVRQAPGKGLEWVSTITHNGAITTYAESAQGRFTISRDNSKNTLYLQMNSLRAEDTAVYYCAQGGGSNYYRESWGQGTQVTVSS
notes: Humanized monoclonal antibody captured on Protein A; also called VHHz2
B4: 42p155z3 humanized monoclonal antibody (antibody, V domains shown)
VH: B3 VH with A88P
notes: Humanized monoclonal antibody captured on Protein A; also called VHHz3
B5: 2p442 chimeric monospecific antibody (antibody, V domains shown)
VH: QVQLVESGGGLVQPGGSLRLSCVASGFTLDYFAIGWFRQAPGKEREGVSCISGGGSTRYADSVKGRFTISRDNAKNTVYLQMNSLTPEDTAVYYCAAARLLSRNCVPRDSGSWGQGTQVTVSS
notes: Chimeric monospecific antibody; also called parental 2p442
B6: 2p442z10 humanized monoclonal antibody (antibody, V domains shown)
VH: B5 VH with Q13K, V23A, L29F, R45L, T77S, T86R, Q118L
notes: Humanized monoclonal antibody captured on AHC biosensor; also called VHHz10
B7: 2p442z9 humanized monoclonal antibody (antibody, V domains shown)
VH: B5 VH with Q13K, V23A, L29F, R45L, T77S, T86R, A97R, Q118L
notes: Humanized monoclonal antibody captured on AHC biosensor; also called VHHz9
B8: 2p442z8 humanized monoclonal antibody (antibody, V domains shown)
VH: B5 VH with Q13K, V23A, L29F, E44G, T77S, T86R, A97R, Q118L
notes: Humanized monoclonal antibody captured on AHC biosensor; also called VHHz8
B9: 14G12 anti-5T4 mouse monoclonal antibody (antibody, V domains shown)
VH: EVQLQQSGPELVKPGASVKISCKASGYAFSSSWMNWVKQRPGKGLEWIGRIYREDGHTNYNGKFKGKATLTADKSSTTAYMQLTSLTSEDSAVYFCANGGAMDYWGQGTSVTVSS
VL: DIQMTQSTSSLSASLGDRVTISCRASQDISNYLNWYQQKPDGTVKLLIYYTSRLHSGVPSRFSGSGSGTDYSLTISNLEQEDIATYFCQQDNTLPWTFGGGTKLEIK
notes: Mouse monoclonal antibody from hybridoma

What was measured:
[1] = target: T3, human CD40 on the cell surface (human, UniProt P25942 21-277); experiment: FACS, Jurkat cells overexpressing human CD40, PE anti-human IgG, MFI
T3 construct: whole, on cells; also called cell surface CD40; Jurkat-CD40
Method: (§1) To evaluate the binding affinity of 5T4-CD40 bispecific antibodies to cell surface CD40, bispecific antibodies with formats of b 1 (42p155z2), b12 (42p155z2), b13 (42p155z2), b16 (42p155z2), b17 (42p155z2) and b18 (2p1130) were tested in Jurkat cell lines that overexpressed CD40 by FACS. A total number of 1×10⁵ Jurkat-CD40 cells in each well were incubated with 5-fold serially diluted antibodies starting from 100 nM for 30 minutes at 4° C. in FACS buffer. After wash by FACS buffer, PE conjugated-anti-human IgG antibody was added to each well and incubated at 4° C. for 30 minutes. After wash, MFI of PE was evaluated by MACSQuant Analyzer 16.

[2] = target: T4, human CD40-His protein (human, UniProt P25942 21-193); experiment: SPR Biacore T200, antibody captured on Protein A, CD40-His as analyte
T4 construct: His-tagged recombinant protein; also called human CD40-his tag; recombinant CD40 protein
Method: (§2) The binding of the humanized 42p155 and 2p442 antibodies to recombinant human CD40 protein (human CD40-his tag) was tested by Biacore and Octet, respectively, using a capture method.
For humanized 42p155 monoclonal antibodies, 42p155z2 and 42p155z3 were captured using Protein A chip. A serial dilution of human CD40-his tag protein was injected over captured antibody for 3 mins at a flow rate of 10 μl/min. The antigen was allowed to dissociate for 6 min. All the experiments were carried out on a Biacore T200. Data analysis was carried out using Biacore T200 evaluation software.

[3] = target: T3, human CD40 on the cell surface; experiment: cell-based or functional assay
[4] = target: T5, human 4-1BB protein (human, UniProt Q07011 24-186); experiment: ELISA, plate-coated protein
T5 construct: also called 4-IBB
Method: (§3) To evaluate the cross reactivity of chimeric anti-CD40 antibodies to other family members of TNF receptors, the ELISA binding towards human 4-1BB and human OX40 were performed.
(§4) Briefly, microtiter plates were coated with human 4-1BB protein or human OX40 protein at 1 μg/ml in PBS, 100 μl/well at 4° C. overnight, then blocked with 150 μl/well of 1% BSA. Ten-fold dilutions of 42p155, 2p834, 2p931, 42p655, 2p1294, 2p957, 42p495, 3p78, 2p415, 2p442, 2p551, 2p80 and 2p1130 antibodies starting from 100 nM were added to each well and incubated for 1 hour at RT. The plates were washed with PBS/Tween and then incubated with Anti-Human IgG (H&L) (GOAT) Antibody Peroxidase Conjugated for 30 mins at RT. After washing, the plates were developed with TMB substrate and analyzed by spectrophotometer at OD 450 nm.

[5] = target: T1, human OX40 protein; experiment: ELISA, plate-coated protein
Method: as §3, §4

[6] = target: T4, human CD40-His protein; experiment: ELISA, plate-coated human CD40-His
Method: (§5) To evaluate the binding activity of clones 42p155, 2p834, 2p931, 42p655, 2p1294, 2p957, 42p495, 3p78, 2p415, 2p442, 2p551, 2p80 and 2p1130, the chimeric monospecific antibody (mAb) from these clones were subjected to ELISA test, along with selicrelumab, the clinical benchmark anti-CD40 agonist antibodies.
as §4, with “human CD40-His” for “human 4-1BB protein or human OX40”, “at 1.0” for “at 1”, “150 µl/well” for “150 μl/well”

[7] = target: T6, cynomolgus CD40-His protein (cynomolgus, UniProt G7PG38 21-193); experiment: ELISA, plate-coated cynomolgus CD40-His
T6 construct: His-tagged recombinant protein; also called cyno CD40 antigen
Method: as §5
as §4, with “The binding affinity of these clones to cynomolgus CD40 was also tested. Microtiter plates” for “Briefly, microtiter plates”, “with cynomolgus CD40-His” for “with human 4-1BB protein or human OX40”, “at 1.0” for “at 1”, “100 µl/well” for “100 μl/well”, “150 µl/well” for “150 μl/well”, “nm. As shown in FIG. 1B and Table 2, all these clones bound to cynomolgus CD40 at high activity, showing good cross-reactivity between human and cynomolgus CD40 proteins.” for “nm.”

[8] = target: T4, human CD40-His protein; experiment: BLI Octet RED96e, antibody captured on AHC, CD40-His as analyte
Method: as §2
For humanized 2p442 monoclonal antibodies, 2p442z8, 2p442z9 and 2p442z10 were captured using AHC biosensor. A serial dilution of human CD40-his tag protein was incubated with captured antibody for 5 mins. The antigen was allowed to dissociate for 10 min. All the experiments were carried out on an Octet RED96e. Data analysis was carried out using Octet Analysis Studio 12.2 software.

[9] = target: T3, human CD40 on the cell surface; experiment: FACS, Jurkat cells overexpressing human CD40, PE anti-human IgG, MFI; remark: listed apart in the source
Method: as §1, with “humanized 2p442 monoclonal” for “5T4-CD40 bispecific”, “2p442z8, 2p442z9, 2p442z10” for “bispecific antibodies with formats of b 1 (42p155z2), b12 (42p155z2), b13 (42p155z2), b16 (42p155z2), b17 (42p155z2)”, “parental 2p442” for “b18 (2p1130)”, “3-fold” for “5-fold”

[10] = target: T2, human 5T4; experiment: competitive ELISA on human 5T4

T3 sequence (P25942 21-277): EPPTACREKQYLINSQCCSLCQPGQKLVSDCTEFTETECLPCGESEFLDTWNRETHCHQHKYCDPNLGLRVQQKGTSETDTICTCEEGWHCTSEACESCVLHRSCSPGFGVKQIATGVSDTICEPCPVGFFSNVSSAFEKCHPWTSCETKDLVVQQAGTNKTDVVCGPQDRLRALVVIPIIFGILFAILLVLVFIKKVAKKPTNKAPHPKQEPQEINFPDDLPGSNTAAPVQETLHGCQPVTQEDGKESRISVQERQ
T4 sequence (P25942 21-193 limits assumed): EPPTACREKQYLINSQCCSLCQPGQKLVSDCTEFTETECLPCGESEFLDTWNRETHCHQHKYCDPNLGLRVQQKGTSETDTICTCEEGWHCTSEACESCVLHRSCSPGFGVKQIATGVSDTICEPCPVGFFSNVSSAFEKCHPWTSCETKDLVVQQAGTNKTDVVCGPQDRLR

Binder	Kd [8]	koff [8]	kon [8]	EC50 (read off the curve) [9]	other results
B1					binding result [1]: binds
B2					binding result [1]: binds
B3					Kd [2]: 186 nM; koff [2]: 0.0368 s⁻¹; kon [2]: 198000 M⁻¹ s⁻¹
B4					Kd [2]: 193 nM; koff [2]: 0.0555 s⁻¹; kon [2]: 287000 M⁻¹ s⁻¹
B5	50.4 nM	0.0269 s⁻¹	534000 M⁻¹ s⁻¹	~0.2 nM	CD40 NF-κB luciferase reporter (Jurkat), RLU [3]: > 10 nM; binding result [4]: no binding (tested: 100 nM (highest concentration)); binding result [5]: no binding (tested: 100 nM (highest concentration)); EC50 [6]: 1.95 nM; EC50 [7]: 0.3 nM
B6	69.6 nM	0.0337 s⁻¹	485000 M⁻¹ s⁻¹	~0.2 nM	
B7	34.8 nM	0.0125 s⁻¹	357000 M⁻¹ s⁻¹	~0.2 nM	
B8	56.7 nM	0.0119 s⁻¹	210000 M⁻¹ s⁻¹	~0.2 nM	
B9					binding result [10]: binds
